The assay addresses T1, Recombinant human IgG1 Fc (R&D systems) (human, UniProt P01857-1 100-330 = IgG part).
T1 construct: domain: Fc; Negative control surface in the Biacore experiment; also called hIgG1-Fc
As to the kind of experiment: SPR (Biacore T200). In general terms: In SPR one partner is held on a chip, and binding of the other changes the refractive index at the surface.

B1: Recombinant human laminin-α4 (R&D systems) (ligand, UniProt Q16363-2 826-1816, looked up)
chain: QVSMMFDGQSAVEVHSRTSMDDLKAFTSLSLYMKPPVKRPELTETADQFILYLGSKNAKKEYMGLAIKNDNLVYVYNLGTKDVEIPLDSKPVSSWPAYFSIVKIERVGKHGKVFLTVPSLSSTAEEKFIKKGEFSGDDSLLDLDPEDTVFYVGGVPSNFKLPTSLNLPGFVGCLELATLNNDVISLYNFKHIYNMDPSTSVPCARDKLAFTQSRAASYFFDGSGYAVVRDITRRGKFGQVTRFDIEVRTPADNGLILLMVNGSMFFRLEMRNGYLHVFYDFGFSGGPVHLEDTLKKAQINDAKYHEISIIYHNDKKMILVVDRRHVKSMDNEKMKIPFTDIYIGGAPPEILQSRALRAHLPLDINFRGCMKGFQFQKKDFNLLEQTETLGVGYGCPEDSLISRRAYFNGQSFIASIQKISFFDGFEGGFNFRTLQPNGLLFYYASGSDVFSISLDNGTVIMDVKGIKVQSVDKQYNDGLSHFVISSVSPTRYELIVDKSRVGSKNPTKGKIEQTQASEKKFYFGGSPISAQYANFTGCISNAYFTRVDRDVEVEDFQRYTEKVHTSLYECPIESSPLFLLHKKGKNLSKPKASQNKKGGKSKDAPSWDPVALKLPERNTPRNSHCHLSNSPRAIEHAYQYGGTANSRQEFEHLKGDFGAKSQFSIRLRTRSSHGMIFYVSDQEENDFMTLFLAHGRLVYMFNVGHKKLKIRSQEKYNDGLWHDVIFIRERSSGRLVIDGLRVLEESLPPTEATWKIKGPIYLGGVAPGKAVKNVQINSIYSFSGCLSNLQLNGASITSASQTFSVTPCFEGPMETGTYFSTEGGYVVLDESFNIGLKFEIAFEVRPRSSSGTLVHGHSVNGEYLNVHMKNGQVIVKVNNGIRDFSTSVTPKQSLCDGRWHRITVIRDSNVVQLDVDSEVNHVVGPLNPKPIDHREPVFVGGVPESLLTPRLAPSKPFTGCIRHFVIDGHPVSFSKAALVSGAVSINSCPAA
notes: also called laminin 4A chain; laminin A4 (α4) chain
Regarding B1, the binding result is “no binding (tested: 5-175 nM)”.

The record behind these values is patent US20140314744A1 (NEOTOPE BIOSCIENCES, published 2014).
